First the molecules themselves.
B11: human D6 mutant K142R, E145A (receptor)
chain: MAATASPQPLATEDADSENSSFYYYDYLDEVAFMLCRKDAVVSFGKVFLPVFYSLIFVLGLSGNLLLLMVLLRYVPRRRMVEIYLLNLAISNLLFLVTLPFWGISVAWHWVFGSFLCKMVSTLYTINFYSGIFFISCMSLDRYLAIVHAQPYHRLRTRAKSLLLATIVWAVSLAVSIPDMVFVQTHENPKGVWNCHADFGGHGTIWKLFLRFQQNLLGFLLPLLAMIFFYSRIGCVLVRLRPAGQGRALKIAAALVVAFFVLWFPYNLTLFLHTLLDLQVFGNCEVSQHLDYALQVTESIAFLHCCFSPILYAFSSHRFRQYLKAFLAAVLGWHLAPGTAQASLSSCSESSILTAQEEMTGMNDLGERQSENYPNKEDVGNKSA
notes: Expressed in HEK 293 cells; also called K142R,E145A mutant
B12: human D6 triple mutant N92D, K142R, E145A (receptor)
chain: MAATASPQPLATEDADSENSSFYYYDYLDEVAFMLCRKDAVVSFGKVFLPVFYSLIFVLGLSGNLLLLMVLLRYVPRRRMVEIYLLNLAISDLLFLVTLPFWGISVAWHWVFGSFLCKMVSTLYTINFYSGIFFISCMSLDRYLAIVHAQPYHRLRTRAKSLLLATIVWAVSLAVSIPDMVFVQTHENPKGVWNCHADFGGHGTIWKLFLRFQQNLLGFLLPLLAMIFFYSRIGCVLVRLRPAGQGRALKIAAALVVAFFVLWFPYNLTLFLHTLLDLQVFGNCEVSQHLDYALQVTESIAFLHCCFSPILYAFSSHRFRQYLKAFLAAVLGWHLAPGTAQASLSSCSESSILTAQEEMTGMNDLGERQSENYPNKEDVGNKSA
notes: Expressed in HEK 293 cells
B14: murine MIP-1α (ligand, UniProt P10855 24-92, looked up)
chain: APYGADTPTACCFSYSRKIPRQFIVDYFETSSLCSQPGVIFLTKRNRQICADSKETWVQEYITDLELNA
modifications: also: radioiodinated (125I) when used as tracer
notes: also called mMIP-1α

In assay [1] the target is T1, murine D6 (murine, UniProt O08707 1-378).
T1 construct: Endogenous on B-end cells in the polyclonal antibody staining; also called murine D6 receptor; mouse D6
T1 sequence: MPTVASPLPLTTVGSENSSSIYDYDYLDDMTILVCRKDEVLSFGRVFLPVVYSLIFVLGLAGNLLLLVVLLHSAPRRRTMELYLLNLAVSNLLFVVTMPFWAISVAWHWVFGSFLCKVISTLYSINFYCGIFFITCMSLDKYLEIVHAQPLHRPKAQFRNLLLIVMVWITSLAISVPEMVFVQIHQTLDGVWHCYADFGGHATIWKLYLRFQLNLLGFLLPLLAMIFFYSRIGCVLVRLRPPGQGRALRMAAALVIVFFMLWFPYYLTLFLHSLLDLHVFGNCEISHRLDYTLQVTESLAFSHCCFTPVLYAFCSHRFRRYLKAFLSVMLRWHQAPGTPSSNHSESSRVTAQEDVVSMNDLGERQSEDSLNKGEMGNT
Briefly: displacement of radiolabeled murine MIP-1α from murine D6 on transfected cells. On the procedure:
(§1) Stably transfected CHO cells were plated at 10^5 cells/well in 24-well plates and incubated overnight at 37° C. After washing with warm PBS, the cells were incubated in 250 μl of binding buffer (special liquid medium plus 10% fetal calf serum, 4 mM glutamine, 0.2% sodium azide, 25 mM HEPES (pH 7.4)) containing variable concentrations of radioiodinated MIP-1 and cold competitor chemokine. Binding proceeded for 90 minutes at 22° C., then each well washed three times in ice-cold PBS and the cell monolayer was then solubilized by the addition of 0.5 ml of 1% SDS. Lysed cells were transferred to a counting vial and bound radioactivity counted for 1 minute in Beckman Gamma 5500B counter. Each data point was assayed in triplicate and each experiment performed at least twice of accuracy. Data was analyzed using Scahot and Scafit programs in LIGAND software (Munson et al. (1980) Anal. Biochem. 107:220-239).

The target in a further assay is T2, human D6 (human, UniProt O00590 1-384).
T2 construct: Full-length human D6 expressed in CHO, Hos.CD4, HEK 293, K293 or L1.2 cells; Endogenous on THP-1 cells; also called human D6 receptor; wild type human D6
T2 sequence: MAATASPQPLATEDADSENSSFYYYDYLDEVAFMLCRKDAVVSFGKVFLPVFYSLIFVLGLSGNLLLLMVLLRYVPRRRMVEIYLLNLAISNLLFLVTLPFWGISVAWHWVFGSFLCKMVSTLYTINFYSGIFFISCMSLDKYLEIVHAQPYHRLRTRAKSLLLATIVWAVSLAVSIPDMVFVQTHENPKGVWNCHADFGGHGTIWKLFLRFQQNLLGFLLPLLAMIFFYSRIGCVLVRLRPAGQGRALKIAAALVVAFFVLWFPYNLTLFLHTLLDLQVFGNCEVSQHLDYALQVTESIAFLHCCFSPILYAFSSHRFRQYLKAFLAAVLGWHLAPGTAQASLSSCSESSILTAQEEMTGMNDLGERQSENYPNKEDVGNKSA
Put plainly: displacement of 125I-murine MIP-1α by unlabeled chemokine on cells expressing human D6; LIGAND analysis. The protocol:
as §1
The receptor binding assays were carried out as described above for the displacement analysis of murine D6 with cells being plated at 2×10⁵ cells/well in 24-well plates and incubated overnight at 37° C. prior to binding analysis.

Assay [2] addresses T1, murine D6. Put plainly: competition with 125I-murine MIP-1α on CHO cells stably expressing murine D6; LIGAND analysis. The protocol: as §1
The target of assay [3] is B11. Briefly: cell-based or functional assay.
In assay [4] the target is B12. Briefly: cell-based or functional assay.
The target in the assay “murine MIP-1α” is B14. Briefly: radioligand binding on transfected cells.
The next assay has as its target T3, human CCR5 (human, UniProt P51681 1-352 at identity 1.00)).
T3 chain: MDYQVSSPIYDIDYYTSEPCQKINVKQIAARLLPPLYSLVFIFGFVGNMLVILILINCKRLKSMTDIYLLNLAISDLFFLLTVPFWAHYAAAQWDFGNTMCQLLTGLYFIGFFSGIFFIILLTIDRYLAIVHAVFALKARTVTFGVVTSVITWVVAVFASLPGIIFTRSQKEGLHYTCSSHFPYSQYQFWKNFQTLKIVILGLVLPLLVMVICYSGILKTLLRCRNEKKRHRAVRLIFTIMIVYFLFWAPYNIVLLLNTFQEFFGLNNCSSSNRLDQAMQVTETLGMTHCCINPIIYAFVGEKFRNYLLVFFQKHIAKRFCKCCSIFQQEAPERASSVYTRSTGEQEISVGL
Put plainly: cell-based or functional assay.

The target in assay [5] is T1, murine D6. Briefly: binding assays on CHO cells expressing murine D6. On the procedure:
as §1

B1: KC (ligand, UniProt P12850 25-96, looked up)
chain: APIANELRCQCLQTMAGIHLKNIQSLKVLPSGPHCTQTEVIATLKNGREACLDPEAPLVQKIVQKMLKGVPK
Turning to B1, in the assay with murine D6 [1], the binding result is reported as “no binding”.

B2: human Eotaxin (ligand)
chain: not shown
What is called Kd is the free concentration of one partner at which half of the binding sites on the other are occupied at equilibrium, for simple one-to-one binding. Higher therefore signals a looser complex. B2 came in with a Kd in the assay with human D6 of 46 nM.

B3: human MCP-3 (ligand)
chain: not shown
notes: also called hMCP-3
For the molecule B3, the values for the Kd with murine D6 [2] and with human D6 were 5 nM and 1.2 nM, respectively.

B4: human HCC1 (ligand, UniProt Q16627 20-93, looked up)
chain: TKTESSSRGPYHPSECCFTYTTYKIPRQRIMDYYETNSQCSKPGIVFITKRGHSVCTNPSDKWVQDYIKDMKEN
As for B4, in the assay with human D6, binding was characterised by a dissociation constant (Kd) of 27.2 nM.

B5: human RANTES (ligand, UniProt P13501 24-91, looked up)
chain: SPYSSDTTPCCFAYIARPLPRAHIKEYFYTSGKCSNPAVVFVTRKNRQVCANPEKKWVREYINSLEMS
notes: also called hRANTES; HRANTES
Take B5: the Kd worked out at 2 nM with murine D6 [2] and 3.6 nM with human D6. In addition, the “[Ca++]” value in assay [3] came to 19.3 nmol/L.

B6: human MCP-4 (ligand)
chain: not shown
On to B6, for which, in the assay with human D6, binding was put at a Kd of 5.9 nM.

B7: human MCP-2 (ligand, UniProt P80075 24-99, looked up)
chain: QPDSVSIPITCCFNVINRKIPIQRLESYTRITNIQCPKEAVIFKTKRGKEVCADPKERWVRDSMKHLDQIFQNLKP
notes: also called hMCP-2
B7: in the assay with human D6, binding was characterised by a dissociation constant (Kd) of 768 nM. Also, the “[Ca++]” value is 13.7 nmol/L in assay [4] and 22.9 nmol/L in assay [3].

B8: murine MIP-1β (ligand, UniProt P14097 24-92, looked up)
chain: APMGSDPPTSCCFSYTSRQLHRSFVMDYYETSSLCSKPAVVFLTKRGRQICANPSEPWVTEYMSDLELN
notes: also called mMIP-1β; murine M1β
With B8, the results for the dissociation constant (Kd) with murine D6 [2] and with human D6 were 0.77 nM and 0.755 nM, respectively.

B9: human MIP-1β (ligand, UniProt P13236 24-92, looked up)
chain: APMGSDPPTACCFSYTARKLPRNFVVDYYETSSLCSQPAVVFQTKRSKQVCADPSESWVQEYVYDLELN
For B9, the Kd is 0.26 nM with murine D6 [2] and 1.7 nM with human D6.

B10: murine JE (ligand)
chain: not shown
notes: They are treated here as one protein (JE is the murine MCP-1); also called murine MCP-1
In the case of B10, the Kd with murine D6 [2] was determined as 1.5 nM; with human D6, 613 nM.

Consider B11, for which the binding result with murine MIP-1α is “binds”.

On to B12, for which the binding result with murine MIP-1α is recorded as “binds”.

B13: human MIP-1α (ligand, UniProt P10147 24-92, looked up)
chain: SLAADTPTACCFSYTSRQIPQNFIADYFETSSQCSKPGVIFLTKRSRQVCADPSEEWVQKYVSDLELSA
notes: also called hMIP-1α
B13 had a Kd with human D6 of 64 nM. Besides, the “[Ca++]” value with human CCR5 came to 412 nmol/L.

The molecule B14 displayed a Kd with human D6 of 0.92 nM. Moreover, the binding result with murine D6 [5] is given as “binds”. In addition, the entries for the “[Ca++]” value in assay [4] and in assay [3] were 11.3 nmol/L and 28.2 nmol/L, respectively.

B15: murine MCP-5 (ligand, UniProt Q62401 23-104, looked up)
chain: GPDAVSTPVTCCYNVVKQKIHVRKLKSYRRITSSQCPREAVIFRTILDKEICADPKEKWVKNSINHLDKTSQTFILEPSCLG
notes: also called mMCP-5
The molecule B15 had a Kd with human D6 of 6.3 nM.

B16: murine Eotaxin (ligand, UniProt P48298 24-97, looked up)
chain: HPGSIPTSCCFIMTSKKIPNTLLKSYKRITNNRCTLKAIVFKTRLGKEICADPKKKWVQDATKHLDQKLQTPKP
As to B16, in the assay with human D6, binding was put at a Kd of 30 nM.
